# Reference: IntAct's records for PubMed 20847002
# B1: Probable peptidoglycan glycosyltransferase FtsW (Escherichia coli (strain K12)), P0ABG4 (parent)
# chain: MRLSLPRLKMPRLPGFSILVWISTALKGWVMGSREKDTDSLIMYDRTLLWLTFGLAAIGFIMVTSASMPIGQRLTNDPFFFAKRDGVYLILAFILAIITLRLPMEFWQRYSATMLLGSIILLMIVLVVGSSVKGASRWIDLGLLRIQPAELTKLSLFCYIANYLVRKGDEVRNNLRGFLKPMGVILVLAVLLLAQPDLGTVVVLFVTTLAMLFLAGAKLWQFIAIIGMGISAVVLLILAEPYRIRRVTAFWNPWEDPFGSGYQLTQSLMAFGRGELWGQGLGNSVQKLEYLPEAHTDFIFAIIGEELGYVGVVLALLMVFFVAFRAMSIGRKALEIDHRFSGFLACSIGIWFSFQALVNVGAAAGMLPTKGLTLPLISYGGSSLLIMSTAIMMLLRIDYETRLEKAQAFVRGSR
# partner: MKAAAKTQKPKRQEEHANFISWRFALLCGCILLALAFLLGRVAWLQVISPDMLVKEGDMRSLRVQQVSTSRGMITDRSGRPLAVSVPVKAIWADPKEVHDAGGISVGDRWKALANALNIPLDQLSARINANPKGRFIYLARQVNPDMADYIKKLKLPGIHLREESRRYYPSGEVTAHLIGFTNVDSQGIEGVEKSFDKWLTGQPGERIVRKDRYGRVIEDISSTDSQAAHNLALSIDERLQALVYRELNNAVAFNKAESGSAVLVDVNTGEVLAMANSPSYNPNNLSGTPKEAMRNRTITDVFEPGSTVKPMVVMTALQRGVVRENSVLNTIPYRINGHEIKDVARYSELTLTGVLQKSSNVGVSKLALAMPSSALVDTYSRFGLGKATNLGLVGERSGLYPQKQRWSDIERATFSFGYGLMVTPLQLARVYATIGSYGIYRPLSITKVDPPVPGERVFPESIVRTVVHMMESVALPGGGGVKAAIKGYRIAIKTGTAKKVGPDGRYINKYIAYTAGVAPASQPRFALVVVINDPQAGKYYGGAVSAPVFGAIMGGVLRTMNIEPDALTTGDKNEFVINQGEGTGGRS
# B2: Peptidoglycan D,D-transpeptidase FtsI (Escherichia coli (strain K12)), P0AD68 (parent)
# chain: B1 partner
# partner: B1 chain
# B3: Probable peptidoglycan glycosyltransferase FtsW (Escherichia coli (strain K12)), P0ABG4 (parent)
# chain: B1 chain
# partner: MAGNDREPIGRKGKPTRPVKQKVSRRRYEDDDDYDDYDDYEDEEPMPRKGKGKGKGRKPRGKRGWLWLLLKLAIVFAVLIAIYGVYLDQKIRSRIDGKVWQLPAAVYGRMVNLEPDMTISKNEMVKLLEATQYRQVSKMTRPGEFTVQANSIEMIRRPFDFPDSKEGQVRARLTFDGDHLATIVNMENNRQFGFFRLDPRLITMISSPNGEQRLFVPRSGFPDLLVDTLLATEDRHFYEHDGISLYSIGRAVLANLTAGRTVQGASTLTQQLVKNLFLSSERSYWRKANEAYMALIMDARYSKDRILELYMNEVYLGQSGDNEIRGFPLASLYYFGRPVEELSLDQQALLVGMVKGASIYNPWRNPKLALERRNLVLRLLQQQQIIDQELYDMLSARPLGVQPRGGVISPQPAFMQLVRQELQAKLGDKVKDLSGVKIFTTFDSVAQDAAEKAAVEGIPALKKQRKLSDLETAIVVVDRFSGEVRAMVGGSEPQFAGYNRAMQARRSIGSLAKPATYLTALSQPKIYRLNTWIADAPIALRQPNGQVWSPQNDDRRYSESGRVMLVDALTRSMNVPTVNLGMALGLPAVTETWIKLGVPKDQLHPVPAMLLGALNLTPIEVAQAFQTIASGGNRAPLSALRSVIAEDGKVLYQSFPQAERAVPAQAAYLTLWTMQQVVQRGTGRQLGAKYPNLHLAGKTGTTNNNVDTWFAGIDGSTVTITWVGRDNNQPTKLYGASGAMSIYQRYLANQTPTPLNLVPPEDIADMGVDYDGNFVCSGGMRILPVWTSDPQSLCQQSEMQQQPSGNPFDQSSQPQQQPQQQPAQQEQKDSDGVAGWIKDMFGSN
# Variants of: B1
# Details: with ftsi_ecoli ftsI
row,Variant,effect of a mutation on the interaction
1,MRLSLPRLKMPRLPGFSILVWISTALKGWVMGSREKDTDSLIMYDRTLLWLTFGLAAIGFIMVTSASMPIGQRLTNDPFFFAKRDGVYLILAFILAIITLRLPMEFWQRYSATMLLGSIILLMIVLVVGSSVKGASRWIDLGLLRIQPAELTKLSLFCYIANYLVRKGDEVRNNLRGFLKPMGVILVLAVLLLAQPDLGTVVVLFVTTLAMLFLAGAKLWQFIAIIGMGISAVVLLILAEPYRIRRVTAFWNPWEDPFGSGYQLTQSLMAFGRGELWGQGLGNSVQKLEYLPEAHTDFIFAIIGEELGYVGVVLALLMVFFVAFRAMSIGRKALEIDHRFSGFLACSIGIWFSFQALVNVGAAAGMLPTKGLTLALISYGGSSLLIMSTAIMMLLRIDYETRLEKAQAFVRGSR [P375A],decreasing interaction
2,MRLSLPRLKMPRLPGFSILVWISTALKGWVMGSREKDTDSLIMYDRTLLWLTFGLAAIGFIMVTSASMPIGQRLTNDPFFFAKRDGVYLILAFILAIITLRLPMEFWQRYSATMLLGSIILLMIVLVVGSSVKGASRWIDLGLLRIQPAELTKLSLFCYIANYLVRKGDEVRNNLRGFLKPMGVILVLAVLLLAQPDLGTVVVLFVTTLAMLFLAGAKLWQFIAIIGMGISAVVLLILAEPYRIRRVTAFWNPWEDPFGSGYQLTQSLMAFGRGELWGQGLGNSVQKLEYLPEAHTDFIFAIIGEELGYVGVVLALLMVFFVAFRAMSIGRKALEIDHRFSGFLACSIGIWFSFQALVNVGAAAGMLATKGLTLPLISYGGSSLLIMSTAIMMLLRIDYETRLEKAQAFVRGSR [P368A],decreasing interaction

# Variants of: B2
# Details: with ftsw_ecoli ftsW
row,Variant,effect of a mutation on the interaction
1,MKAAAKTQKPKRQEEHANFISWCFALLCGCILLALAFLLGRVAWLQVISPDMLVKEGDMRSLRVQQVSTSRGMITDRSGRPLAVSVPVKAIWADPKEVHDAGGISVGDRWKALANALNIPLDQLSARINANPKGRFIYLARQVNPDMADYIKKLKLPGIHLREESRRYYPSGEVTAHLIGFTNVDSQGIEGVEKSFDKWLTGQPGERIVRKDRYGRVIEDISSTDSQAAHNLALSIDERLQALVYRELNNAVAFNKAESGSAVLVDVNTGEVLAMANSPSYNPNNLSGTPKEAMRNRTITDVFEPGSTVKPMVVMTALQRGVVRENSVLNTIPYRINGHEIKDVARYSELTLTGVLQKSSNVGVSKLALAMPSSALVDTYSRFGLGKATNLGLVGERSGLYPQKQRWSDIERATFSFGYGLMVTPLQLARVYATIGSYGIYRPLSITKVDPPVPGERVFPESIVRTVVHMMESVALPGGGGVKAAIKGYRIAIKTGTAKKVGPDGRYINKYIAYTAGVAPASQPRFALVVVINDPQAGKYYGGAVSAPVFGAIMGGVLRTMNIEPDALTTGDKNEFVINQGEGTGGRS [R23C],decreasing interaction strength

# Variants of: B3
# Details: with pbpb_ecoli mrcB
row,Variant,effect of a mutation on the interaction
1,MRLSLPRLKMPRLPGFSILVWISTALKGWVMGSREKDTDSLIMYDRTLLWLTFGLAAIGFIMVTSASMPIGQRLTNDPFFFAKRDGVYLILAFILAIITLRLPMEFWQRYSATMLLGSIILLMIVLVVGSSVKGASRWIDLGLLRIQPAELTKLSLFCYIANYLVRKGDEVRNNLRGFLKPMGVILVLAVLLLAQPDLGTVVVLFVTTLAMLFLAGAKLWQFIAIIGMGISAVVLLILAEPYRIRRVTAFWNPWEDPFGSGYQLTQSLMAFGRGELWGQGLGNSVQKLEYLPEAHTDFIFAIIGEELGYVGVVLALLMVFFVAFRAMSIGRKALEIDHRFSGFLACSIGIWFSFQALVNVGAAAGMLPTKGLTLALISYGGSSLLIMSTAIMMLLRIDYETRLEKAQAFVRGSR [P375A],decreasing interaction
2,MRLSLPRLKMPRLPGFSILVWISTALKGWVMGSREKDTDSLIMYDRTLLWLTFGLAAIGFIMVTSASMPIGQRLTNDPFFFAKRDGVYLILAFILAIITLRLPMEFWQRYSATMLLGSIILLMIVLVVGSSVKGASRWIDLGLLRIQPAELTKLSLFCYIANYLVRKGDEVRNNLRGFLKPMGVILVLAVLLLAQPDLGTVVVLFVTTLAMLFLAGAKLWQFIAIIGMGISAVVLLILAEPYRIRRVTAFWNPWEDPFGSGYQLTQSLMAFGRGELWGQGLGNSVQKLEYLPEAHTDFIFAIIGEELGYVGVVLALLMVFFVAFRAMSIGRKALEIDHRFSGFLACSIGIWFSFQALVNVGAAAGMLATKGLTLPLISYGGSSLLIMSTAIMMLLRIDYETRLEKAQAFVRGSR [P368A],decreasing interaction
